Blank lines part the entries; values can stand above or below the binder they belong to.
Columns and labels:
FLAG-tagged Claspin(ENL) = molecular target: T1, FLAG-tagged Claspin(ENL) (human, UniProt Q9HAW4 1-1339, limits assumed); experiment: co-immunoprecipitation with anti-HA antibody from HEK293T cells, immunoblot (FIG. 3F)
T1 construct: also called mutant #3; not shown: FLAG tag
Experimental: (§1) HEK293T cells were cotransfected with HA-tagged Cdh1 and the indicated FLAG-tagged Claspin mutants. Whole cell extracts (WCE, bottom two panels, FIG. 3B) were immunoprecipitated (IP, upper two panels FIG. 3B) with an anti-HA antibody, and the indicated proteins were detected by immunoblotting. Finally, five unique, triple-point-mutations to Alanine across Claspin amino acids 79-102 were inserted, following the pattern of evolutionary conserved residues (FIG. 3E), and these mutants were assayed for binding to Cdh1. […] Thus, these studies identified the motif “EENxENL” (SEQ ID NO:29) located at residues 86-92 of Claspin (SEQ ID NO: 9), as the site mediating binding to Cdh1. Accordingly, in contrast to wild type Claspin, Claspin(ENL) was stable in HeLa cells progressing through G1 (FIG. 2C).

FLAG-tagged Claspin(EEN) = molecular target: T2, FLAG-tagged Claspin(EEN) (human, UniProt Q9HAW4 1-1339, limits assumed); experiment: as above
T2 construct: also called mutant #2; not shown: FLAG tag
Experimental: as §1

Claspin = molecular target: T3, Claspin (human, UniProt Q9HAW4 1-1339); experiment: co-immunoprecipitation with anti-FLAG resin from HEK293T cells, immunoblot for endogenous Claspin (FIG. 2A)
T3 construct: also called endogenous Claspin; wild type Claspin
Experimental: To test whether APC/C^Cdh1 has a role in the degradation of Claspin during G0/G1, the expression of Cdh1 was reduced in T98G cells using a validated […] (SEQ ID NO:21). T98G cells were serum starved following knockdown of Cdh1, and the expression levels of Claspin were analyzed at various time points thereafter. FIGS. 2A-D are immunoblots showing Claspin is degraded in G0 and G1 via the APC/C^Cdh1 ubiquitin ligase. […] HEK293T cells were transfected with the indicated FLAG-tagged constructs or an empty vector (EV). Whole cell extracts (WCE) were immunoprecipitated (IP) with anti-FLAG resin, and immunocomplexes were probed with antibodies to the indicated proteins.

T3 sequence (Q9HAW4 whole entry): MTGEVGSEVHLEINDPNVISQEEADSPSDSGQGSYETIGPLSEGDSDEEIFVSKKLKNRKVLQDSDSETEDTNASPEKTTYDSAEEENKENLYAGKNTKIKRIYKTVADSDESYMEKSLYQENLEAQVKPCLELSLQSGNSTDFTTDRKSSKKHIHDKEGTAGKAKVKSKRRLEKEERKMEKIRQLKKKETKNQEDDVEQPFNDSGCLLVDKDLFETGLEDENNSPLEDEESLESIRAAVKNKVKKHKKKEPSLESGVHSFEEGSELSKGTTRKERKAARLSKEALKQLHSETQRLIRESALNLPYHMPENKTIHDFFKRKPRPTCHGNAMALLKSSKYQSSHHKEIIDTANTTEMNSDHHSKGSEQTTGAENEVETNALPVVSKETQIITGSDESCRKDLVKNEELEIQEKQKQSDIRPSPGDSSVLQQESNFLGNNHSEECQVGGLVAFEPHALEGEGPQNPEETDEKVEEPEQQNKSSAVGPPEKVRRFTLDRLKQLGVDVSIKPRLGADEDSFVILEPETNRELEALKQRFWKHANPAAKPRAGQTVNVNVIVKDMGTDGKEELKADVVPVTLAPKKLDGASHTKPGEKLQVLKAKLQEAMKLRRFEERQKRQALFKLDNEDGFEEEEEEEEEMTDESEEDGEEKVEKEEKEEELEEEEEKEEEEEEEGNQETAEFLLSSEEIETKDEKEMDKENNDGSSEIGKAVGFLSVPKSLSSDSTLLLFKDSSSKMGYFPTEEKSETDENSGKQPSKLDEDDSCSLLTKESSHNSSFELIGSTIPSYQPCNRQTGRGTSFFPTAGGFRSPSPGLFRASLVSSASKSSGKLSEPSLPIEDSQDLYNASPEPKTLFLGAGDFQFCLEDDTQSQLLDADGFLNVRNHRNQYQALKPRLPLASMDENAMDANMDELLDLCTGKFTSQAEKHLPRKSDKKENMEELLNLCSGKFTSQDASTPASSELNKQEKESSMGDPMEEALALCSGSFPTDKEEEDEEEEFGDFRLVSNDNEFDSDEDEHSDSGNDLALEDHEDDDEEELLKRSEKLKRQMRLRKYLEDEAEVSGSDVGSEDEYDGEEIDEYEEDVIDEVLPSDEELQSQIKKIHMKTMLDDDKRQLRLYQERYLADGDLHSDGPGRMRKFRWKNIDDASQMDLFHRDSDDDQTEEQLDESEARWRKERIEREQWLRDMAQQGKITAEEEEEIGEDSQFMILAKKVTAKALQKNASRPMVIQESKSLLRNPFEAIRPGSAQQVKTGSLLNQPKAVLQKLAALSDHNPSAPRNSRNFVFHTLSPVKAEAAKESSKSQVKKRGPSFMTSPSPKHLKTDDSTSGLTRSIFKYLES
T2 sequence (Q9HAW4 other isoform, or with tags, fused parts or gaps limits assumed): as the sequence (Q9HAW4 whole entry) above, with E86A, E87A, N88A counted along it
T1 sequence (Q9HAW4 other isoform, or with tags, fused parts or gaps limits assumed): as the sequence (Q9HAW4 whole entry) above, with E90A, N91A, L92A counted along it

- binding result (FLAG-tagged Claspin(ENL)): no binding
- binding result (FLAG-tagged Claspin(EEN)): no binding
B1: HA-tagged Cdh1 (other)
chain: MDQDYERRLLRQIVIQNENTMPRVTEMRRTLTPASSPVSSPSKHGDRFIPSRAGANWSVNFHRINENEKSPSQNRKAKDATSDNGKDGLAYSALLKNELLGAGIEKVQDPQTEDRRLQPSTPEKKGLFTYSLSTKRSSPDDGNDVSPYSLSPVSNKSQKLLRSPRKPTRKISKIPFKVLDAPELQDDFYLNLVDWSSLNVLSVGLGTCVYLWSACTSQVTRLCDLSVEGDSVTSVGWSERGNLVAVGTHKGFVQIWDAAAGKKLSMLEGHTARVGALAWNAEQLSSGSRDRMILQRDIRTPPLQSERRLQGHRQEVCGLKWSTDHQLLASGGNDNKLLVWNHSSLSPVQQYTEHLAAVKAIAWSPHQHGLLASGGGTADRCIRFWNTLTGQPLQCIDTGSQVCNLAWSKHANELVSTHGYSQNQILVWKYPSLTQVAKLTGHSYRVLYLAMSPDGEAIVTGAGDETLRFWNVFSKTRSTKESVSVLNLFTRIR
notes: not shown: HA tag

- binding result (Claspin): no binding
B2: FLAG-tagged Fbxw4 (other, UniProt P57775 1-412, looked up)
chain: MAAAAGEEEEEEEAARESAARPAAGPALWRLPEELLLLICSYLDMRALGRLAQVCRWLRRFTSCDLLWRRIARASLNSGFTRLGTDLMTSVPVKERVKVSQNWRLGRCREGILLKWRCSQMPWMQLEDDSLYISQANFILAYQFRPDGASLNRRPLGVFAGHDEDVCHFVLANSHIVSAGGDGKIGIHKIHSTFTVKYSAHEQEVNCVDCKGGIIVSGSRDRTAKVWPLASGRLGQCLHTIQTEDRVWSIAISPLLSSFVTGTACCGHFSPLRIWDLNSGQLMTHLGSDFPPGAGVLDVMYESPFTLLSCGYDTYVRYWDLRTSVRKCVMEWEEPHDSTLYCLQTDGNHLLATGSSYYGVVRLWDRRQRACLHAFPLTSTPLSSPVYCLRLTTKHLYAALSYNLHVLDFQNP
notes: not shown: FLAG tag

- binding result (Claspin): no binding
B3: FLAG-tagged Fbxw5 (other, UniProt Q969U6 1-566, looked up)
chain: MDEGGTPLLPDSLVYQIFLSLGPADVLAAGLVCRQWQAVSRDEFLWREQFYRYYQVARDVPRHPAAMSWYEEFQRLYDTVPCVEVQTLREHTDQVLHLSFSHSGYQFASCSKDCTVKIWSNDLTISLLHSADMRPYNWSYTQFSQFNKDDSLLLASGVFLGPHNSSSGEIAVISLDSFALLSRVRNKPYDVFGCWLTETSLISGNLHRIGDITSCSVLWLNNAFQDVESENVNVVKRLFKIQNLNASTVRTVMVADCSRFDSPDLLLEAGDPATSPCRIFDLGSDNEEVVAGPAPAHAKEGLRHFLDRVLEGRAQPQLSERMLETKVAELLAQGHTKPPERSATGAKSKYLIFTTGCLTYSPHQIGIKQILPHQMTTAGPVLGEGRGSDAFFDALDHVIDIHGHIIGMGLSPDNRYLYVNSRAWPNGAVVADPMQPPPIAEEIDLLVFDLKTMREVRRALRAHRAYTPNDECFFIFLDVSRDFVASGAEDRHGYIWDRHYNICLARLRHEDVVNSVVFSPQEQELLLTASDDATIKAWRSPRTMRVLQAPRPRPRTFFSWLASQRR
notes: not shown: FLAG tag

Source: patent publication US20100016408A1 (NEW YORK UNIVERSITY, published 2010)
